# Measurements taken from the supplement of paper PMC10567573.
# ± gives the standard deviation.
# Experiment: protein stability index of a GFP-peptide fusion (GPS, HEK-293T) (PSI 1-6); higher = more stable
# [1] = treatment: DMSO, c terminus: a fixed tail appended
# [2] = treatment: MLN4924 1 uM, 8 h, c terminus: a fixed tail appended
# [3] = treatment: DMSO, c terminus: native
# [4] = treatment: MLN4924 1 uM, 8 h, c terminus: native
# 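Note: 24-mer peptide tiles fused after GFP, lentivirally expressed, FACS-sorted into six equal bins by GFP/DsRed ratio, decoded by Illumina sequencing, PSI is the read-weighted mean bin number.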
Sequence,protein stability index [1],protein stability index [2],protein stability index [3],protein stability index [4]
AAHLKLTSIEEGYERSFIHKIKHK [IQUB],3.18 ± 0.24,3.2 ± 0.2,–,–
AALTRMRAESTANAGQSDNRSLAE [ANKRD17],4.79 ± 0.14,4.81 ± 0.15,–,–
AAPAGSLSRKKRLELDDNLDTERP [TRIB3],5.25 ± 0.33,5.27 ± 0.14,–,–
AATRGGSHLQAAAQTPPRPGPPSA [SCNN1D],4.93 ± 0.21,4.84 ± 0.1,–,–
AAWKGRVLLPETQKRQQLSEDTLT [C22orf31],3.83 ± 0.31,3.84 ± 0.38,–,–
ACGIEHCSVHYVSDSGDGVYAGRP [FBXO34],2.25 ± 0.29,2.84 ± 1.1,–,–
ADACDIDEIEEVPTTSHRLSRHDK [NETO1],5.59 ± 0.17,5.45 ± 0.17,–,–
ADDFRTKYEHELALRQTVEADVNG [KRT16],5.17 ± 0.38,5.09 ± 0.034,–,–
ADLLLLTDLKTLCCEFLEGCIAAE [GAN],2.15 ± 0.42,2.16 ± 0.58,–,–
ADLRTNHTLNNLVEKLLREEAEGA [TRIM35],4.32 ± 0.17,4.43 ± 0.2,–,–
AEDKAAVERSKMIDRNLREDGEKA [GNAI1],5.691 ± 0.042,5.34 ± 0.13,–,–
AEEEEEEEEEVDLACTPTDVRDVD [CCND1],5.53 ± 0.31,5.41 ± 0.34,–,–
AEEGWSPTPKCLRLCFFPFVENGH [CFHR2],1.96 ± 0.28,2.12 ± 0.32,–,–
AEISQPPALSQLVNLYLGRSHFLW [TCF25],2.67 ± 0.23,2.73 ± 0.44,–,–
AEKNCMTFFEVSPLCNFNVIESFT [RAB40C],2.3 ± 0.64,2.02 ± 0.24,–,–
AELEQHLEQEQEFQVNKLMKKIKK [CCDC6],4.61 ± 0.26,5.13 ± 0.38,–,–
AESFPGSQVMGSGRGSLSSGGQTS [PLEKHN1],4.81 ± 0.2,4.88 ± 0.25,–,–
AFDKKVLKFDAYFQEDVPMSTEEQ [EFHC1],4.71 ± 0.17,4.73 ± 0.18,–,–
AFPQTPFKTGNSTATCTTNNNPNS [KCNA3],4.61 ± 0.4,4.62 ± 0.17,–,–
AGLFSQEQYERNKSSSSSSSSSSS [TMEM40],5.16 ± 0.083,5.32 ± 0.2,–,–
AGRIDREELCAQSARCVVSFNILV [PCDHGA10],2.45 ± 1.1,2.37 ± 0.61,–,–
AIMCVSCICWSPFLVTMANIGING [PTGFR],3.42 ± 0.095,3.71 ± 0.45,–,–

Sequence,protein stability index [1],protein stability index [2],protein stability index [3],protein stability index [4]
AIQGISEKEKAEIEAKEACDWLRA [DLC1],4.69 ± 0.42,4.72 ± 0.39,–,–
AISSVERYDPQTNEWRMVASMSKR [KLHL20],3.71 ± 0.22,3.99 ± 0.21,–,–
AIVDLISRQYDKFLTHFILMNDVI [FBXO33],3.1 ± 0.45,3.36 ± 0.28,–,–
AKEEGGEEVAKAVLEQEETAAASR [EPB41L3],5.47 ± 0.37,5.79 ± 0.095,–,–
ALATLRVLRGLARPEHPPPAPTGQ [TMEM175],3.09 ± 0.22,3.09 ± 0.39,–,–
ALDNESWGFVHPRLLSVPELCHHV [RETREG3],2.65 ± 0.42,2.46 ± 0.23,–,–
ALEFQPQLVLVAAGFDALQGDPKG [HDAC6],2.86 ± 0.28,3.11 ± 0.47,–,–
ALELLGATFVDKKRDLLGALKYWK [FEM1C],2.25 ± 0.37,2.52 ± 0.86,–,–
ALGHLGNDDSADYQHFLQDCVDGL [DLC1],4.26 ± 0.17,4.28 ± 0.46,–,–
ALILHQRIHSGEKPYGCVECGKAF [ZNF24],2.17 ± 0.052,2.5 ± 0.4,–,–
ALNQEFLATRSNEKQELQELNDRF [PRPH],4.24 ± 0.19,4.38 ± 0.22,–,–
AMEYAPGGTLAEFIQKRCNSLLEE [NEK8],3.56 ± 0.36,3.3 ± 0.29,–,–
AMVLELLGPSLEDLFDLCDRTFTL [CSNK1G1],2.52 ± 1.4,1.53 ± 0.14,–,–
ANFHLNDLEAPHEDDAEGEGEWD [TCF25],–,–,5.63 ± 0.14,5.39 ± 0.22
ANIEEVLQRGEALSALDSKANNLS [SEC22B],4.94 ± 0.16,4.89 ± 0.18,–,–
ANLKQVKKEDTEKERDLRDVGDWR [TNNI2],5.33 ± 0.076,4.96 ± 0.24,–,–
ANYVIVRAYQYTTLTSVQLLDCFG [SLC35F2],3.21 ± 0.26,3.03 ± 0.49,–,–
APDPELAAEMYQRGRAVLREAGFH [RSAD1],3.92 ± 0.32,4.07 ± 0.22,–,–
APEIDPSSDGSNFGWETKIKAWMD [KMT2E],4.21 ± 0.41,4.36 ± 0.25,–,–
APKVNAVDTLNVKDIAPEKQLLNS [DLC1],4.88 ± 0.2,4.82 ± 0.35,–,–
APPPLKDDPEGDRDGCVITKVLL [ZBED3],–,–,5.4 ± 0.25,5.43 ± 0.4
APPTPPEEEDLRRRLKYFFMSPCD [MCOLN1],4.27 ± 0.23,4.15 ± 0.23,–,–

Sequence,protein stability index [1],protein stability index [2],protein stability index [3],protein stability index [4]
APQHPQPGSQALPAPALAPDQLPQ [FBXO28],5.13 ± 0.32,5.04 ± 0.29,–,–
APSLEAPKPSGLEPGPAAYGLKPL [KCTD13],4.45 ± 0.25,4.58 ± 0.1,–,–
APSPQEALVRLRETEEMLGKKQEY [CHMP4C],5.26 ± 0.25,5.12 ± 0.096,–,–
APTMLHNSSGDFSQAHSTLKLANH [TRAF3IP2],4.02 ± 0.19,4.18 ± 0.34,–,–
APTPPSLSQRVMCNDLFKVNPFQL [TIAF1],2.11 ± 0.25,2.25 ± 0.28,–,–
AQLQDFVRAKGSQSGRHLQTHSNT [STX5],4.13 ± 0.08,4.24 ± 0.15,–,–
AQPNTMLGRMFGSGREHNFTRPNE [BTBD10],3.74 ± 0.53,3.61 ± 0.39,–,–
AQRLRPQDEPRQGCQPEDRRRRII [KCNG1],4.92 ± 0.23,4.9 ± 0.1,–,–
ARLQEPVTFRDVAVDFTQEEWGQL [ZNF8],4.13 ± 0.2,4.07 ± 0.22,–,–
ASGKLRKKKKKQKNKKSSTGEASE [TCF25],4.9 ± 0.23,–,–,–
ASGVGFILGPVVGGYLTELEDGFY [MFSD9],2.05 ± 0.62,2.17 ± 0.23,–,–
ASHLGNELEGTEELCCVAELDNPM [C2CD2L],5.2 ± 0.23,5.25 ± 0.18,–,–
ASHTVGFTPPTSLTRAGMSYYNSP [CCDC6],2.82 ± 0.44,3.18 ± 0.21,–,–
ASKGCQLGKTEQGFENMDFFTLDL [TRIM63],3.22 ± 0.19,3.22 ± 0.31,–,–
ASLGDVQSGATISMPCSTDKENGE [SASS6],5.69 ± 0.17,5.62 ± 0.23,–,–
ATRAMGLLNTLSLAFVGGLPLAYQ [TMEM175],3.11 ± 0.32,2.99 ± 0.56,–,–
ATSRTDREIKVTLVFEHVDQDLRT [CDK4],2.2 ± 0.3,2.26 ± 0.41,–,–
AVEAELKSSTVGLVTLNDMKAKQE [FAM50A],5.21 ± 0.2,5.25 ± 0.13,–,–
AVFRFWAGGEKGPQAFPMSRLWDS [DNAAF3],2.14 ± 0.26,2.18 ± 0.22,–,–
AVQDHGQPPLSATVTLTVAVADSI [PCDHGA10],2.83 ± 0.22,2.98 ± 0.34,–,–
AVSVMKKCRKLEDPQSSSQVTTS [SLC19A2],–,–,4.36 ± 0.23,4.37 ± 0.19
